Measured values from patent publication US20220025010A1 (ANTAG THERAPEUTICS, published 2022).
*1 amine or outer side, *2 acyl side, *3 side chain or, on linkers, in order; H or OH if unused. Where no end group is shown, it is not given here. Side-chain parts run from the residue outwards. The star is where a group is joined. C16 diacid = O=C(O)CCCCCCCCCCCCCCC(=O)*; γGlu = O=C(O)[C@H](CCC(=O)[*:2])N[*:1]; AEEA = NCCOCCOCC(=O)O

T1: human GIP receptor (human, UniProt P48546 22-466)
T1 sequence (looked up): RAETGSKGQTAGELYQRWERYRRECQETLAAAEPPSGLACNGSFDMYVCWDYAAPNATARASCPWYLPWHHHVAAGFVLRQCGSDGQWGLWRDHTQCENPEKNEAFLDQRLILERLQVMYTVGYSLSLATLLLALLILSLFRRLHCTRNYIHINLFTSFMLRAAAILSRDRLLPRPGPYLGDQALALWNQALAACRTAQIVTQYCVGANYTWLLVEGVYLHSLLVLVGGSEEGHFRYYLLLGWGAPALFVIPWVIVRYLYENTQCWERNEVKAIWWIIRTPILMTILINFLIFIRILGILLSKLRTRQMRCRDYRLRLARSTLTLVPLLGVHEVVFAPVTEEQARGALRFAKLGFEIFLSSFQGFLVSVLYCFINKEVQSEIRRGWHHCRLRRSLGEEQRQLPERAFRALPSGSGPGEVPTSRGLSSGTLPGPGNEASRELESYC


molecular target: T1, human GIP receptor; assay: cell-based or functional assay

Binder	CisBio cAMP agonism % Efficacy	CisBio cAMP antagonism % inhib	CisBio cAMP antagonism IC50	CisBio cAMP antagonism pIC50	DiscoveRx cAMP agonism Emax	DiscoveRx cAMP antagonism IC50	DiscoveRx cAMP antagonism log IC50	DiscoveRx cAMP antagonism % inhib
GGTFISDYSIAMDRIKQQDFVNWLLAQR (HELM PEPTIDE1{G.G.T.F.I.S.D.Y.S.I.A.M.D.R.I.K.Q.Q.D.F.V.N.W.L.L.A.Q.R}|PEPTIDE2{[O=C(O)CCCCCCCCCCCCCCC(=O)[*:2]].[gGlu]}$PEPTIDE1,PEPTIDE2,16:R3-2:R2$$$V2.0; N-terminus assumed; SMILES CC[C@H](C)[C@H](NC(=O)[C@H](CO)NC(=O)[C@H](Cc1ccc(O)cc1)NC(=O)[C@H](CC(=O)O)NC(=O)[C@H](CO)NC(=O)[C@@H](NC(=O)[C@H](Cc1ccccc1)NC(=O)[C@@H](NC(=O)CNC(=O)CN)[C@@H](C)O)[C@@H](C)CC)C(=O)N[C@@H](C)C(=O)N[C@@H](CCSC)C(=O)N[C@@H](CC(=O)O)C(=O)N[C@@H](CCCNC(=N)N)C(=O)N[C@H](C(=O)N[C@@H](CCCCNC(=O)CC[C@H](NC(=O)CCCCCCCCCCCCCCC(=O)O)C(=O)O)C(=O)N[C@@H](CCC(N)=O)C(=O)N[C@@H](CCC(N)=O)C(=O)N[C@@H](CC(=O)O)C(=O)N[C@@H](Cc1ccccc1)C(=O)N[C@H](C(=O)N[C@@H](CC(N)=O)C(=O)N[C@@H](Cc1c[nH]c2ccccc12)C(=O)N[C@@H](CC(C)C)C(=O)N[C@@H](CC(C)C)C(=O)N[C@@H](C)C(=O)N[C@@H](CCC(N)=O)C(=O)N[C@@H](CCCNC(=N)N)C(=O)O)C(C)C)[C@@H](C)CC) [AT263]	0%	69%	21 nM	6.7	8	74 nM	-7.1 log M	–
PGTFISDYSIAMDRIKQQDFVNWLLAQR (HELM PEPTIDE1{P.G.T.F.I.S.D.Y.S.I.A.M.D.R.I.K.Q.Q.D.F.V.N.W.L.L.A.Q.R.[am]}|PEPTIDE2{[O=C(O)CCCCCCCCCCCCCCC(=O)[*:2]].[gGlu]}$PEPTIDE1,PEPTIDE2,16:R3-2:R2$$$V2.0; N-terminus assumed; SMILES CC[C@H](C)[C@H](NC(=O)[C@H](CO)NC(=O)[C@H](Cc1ccc(O)cc1)NC(=O)[C@H](CC(=O)O)NC(=O)[C@H](CO)NC(=O)[C@@H](NC(=O)[C@H](Cc1ccccc1)NC(=O)[C@@H](NC(=O)CNC(=O)[C@@H]1CCCN1)[C@@H](C)O)[C@@H](C)CC)C(=O)N[C@@H](C)C(=O)N[C@@H](CCSC)C(=O)N[C@@H](CC(=O)O)C(=O)N[C@@H](CCCNC(=N)N)C(=O)N[C@H](C(=O)N[C@@H](CCCCNC(=O)CC[C@H](NC(=O)CCCCCCCCCCCCCCC(=O)O)C(=O)O)C(=O)N[C@@H](CCC(N)=O)C(=O)N[C@@H](CCC(N)=O)C(=O)N[C@@H](CC(=O)O)C(=O)N[C@@H](Cc1ccccc1)C(=O)N[C@H](C(=O)N[C@@H](CC(N)=O)C(=O)N[C@@H](Cc1c[nH]c2ccccc12)C(=O)N[C@@H](CC(C)C)C(=O)N[C@@H](CC(C)C)C(=O)N[C@@H](C)C(=O)N[C@@H](CCC(N)=O)C(=O)N[C@@H](CCCNC(=N)N)C(N)=O)C(C)C)[C@@H](C)CC) [AT506]	5%	78%	147 nM	6.8	–	91 nM	-7 log M	90%
GGTFISDYSIAMDRIKQQDFVNWLLAQR (HELM PEPTIDE1{G.G.T.F.I.S.D.Y.S.I.A.M.D.R.I.K.Q.Q.D.F.V.N.W.L.L.A.Q.R.[am]}|PEPTIDE2{[O=C(O)CCCCCCCCCCCCCCC(=O)[*:2]].[gGlu].[O=C(COCCOCCN[*:1])[*:2]]}$PEPTIDE1,PEPTIDE2,16:R3-3:R2$$$V2.0; N-terminus assumed; SMILES CC[C@H](C)[C@H](NC(=O)[C@H](CO)NC(=O)[C@H](Cc1ccc(O)cc1)NC(=O)[C@H](CC(=O)O)NC(=O)[C@H](CO)NC(=O)[C@@H](NC(=O)[C@H](Cc1ccccc1)NC(=O)[C@@H](NC(=O)CNC(=O)CN)[C@@H](C)O)[C@@H](C)CC)C(=O)N[C@@H](C)C(=O)N[C@@H](CCSC)C(=O)N[C@@H](CC(=O)O)C(=O)N[C@@H](CCCNC(=N)N)C(=O)N[C@H](C(=O)N[C@@H](CCCCNC(=O)COCCOCCNC(=O)CC[C@H](NC(=O)CCCCCCCCCCCCCCC(=O)O)C(=O)O)C(=O)N[C@@H](CCC(N)=O)C(=O)N[C@@H](CCC(N)=O)C(=O)N[C@@H](CC(=O)O)C(=O)N[C@@H](Cc1ccccc1)C(=O)N[C@H](C(=O)N[C@@H](CC(N)=O)C(=O)N[C@@H](Cc1c[nH]c2ccccc12)C(=O)N[C@@H](CC(C)C)C(=O)N[C@@H](CC(C)C)C(=O)N[C@@H](C)C(=O)N[C@@H](CCC(N)=O)C(=O)N[C@@H](CCCNC(=N)N)C(N)=O)C(C)C)[C@@H](C)CC) [AT508]	0%	89%	92.6 nM	7	–	23 nM	-7.6 log M	100%
SGTFISDYSIAMDRIKQQDFVNWLLAQR (HELM PEPTIDE1{S.G.T.F.I.S.D.Y.S.I.A.M.D.R.I.K.Q.Q.D.F.V.N.W.L.L.A.Q.R.[am]}|PEPTIDE2{[O=C(O)CCCCCCCCCCCCCCC(=O)[*:2]].[gGlu].[O=C(COCCOCCN[*:1])[*:2]]}$PEPTIDE1,PEPTIDE2,16:R3-3:R2$$$V2.0; N-terminus assumed; SMILES CC[C@H](C)[C@H](NC(=O)[C@H](CO)NC(=O)[C@H](Cc1ccc(O)cc1)NC(=O)[C@H](CC(=O)O)NC(=O)[C@H](CO)NC(=O)[C@@H](NC(=O)[C@H](Cc1ccccc1)NC(=O)[C@@H](NC(=O)CNC(=O)[C@@H](N)CO)[C@@H](C)O)[C@@H](C)CC)C(=O)N[C@@H](C)C(=O)N[C@@H](CCSC)C(=O)N[C@@H](CC(=O)O)C(=O)N[C@@H](CCCNC(=N)N)C(=O)N[C@H](C(=O)N[C@@H](CCCCNC(=O)COCCOCCNC(=O)CC[C@H](NC(=O)CCCCCCCCCCCCCCC(=O)O)C(=O)O)C(=O)N[C@@H](CCC(N)=O)C(=O)N[C@@H](CCC(N)=O)C(=O)N[C@@H](CC(=O)O)C(=O)N[C@@H](Cc1ccccc1)C(=O)N[C@H](C(=O)N[C@@H](CC(N)=O)C(=O)N[C@@H](Cc1c[nH]c2ccccc12)C(=O)N[C@@H](CC(C)C)C(=O)N[C@@H](CC(C)C)C(=O)N[C@@H](C)C(=O)N[C@@H](CCC(N)=O)C(=O)N[C@@H](CCCNC(=N)N)C(N)=O)C(C)C)[C@@H](C)CC) [AT510]	2%	87%	58.4 nM	7.2	–	30 nM	-7.5 log M	100%
PGTFISDYSIAMDRIKQQDFVNWLLAQR (HELM PEPTIDE1{P.G.T.F.I.S.D.Y.S.I.A.M.D.R.I.K.Q.Q.D.F.V.N.W.L.L.A.Q.R.[am]}|PEPTIDE2{[O=C(O)CCCCCCCCCCCCCCC(=O)[*:2]].[gGlu].[O=C(COCCOCCN[*:1])[*:2]]}$PEPTIDE1,PEPTIDE2,16:R3-3:R2$$$V2.0; N-terminus assumed; SMILES CC[C@H](C)[C@H](NC(=O)[C@H](CO)NC(=O)[C@H](Cc1ccc(O)cc1)NC(=O)[C@H](CC(=O)O)NC(=O)[C@H](CO)NC(=O)[C@@H](NC(=O)[C@H](Cc1ccccc1)NC(=O)[C@@H](NC(=O)CNC(=O)[C@@H]1CCCN1)[C@@H](C)O)[C@@H](C)CC)C(=O)N[C@@H](C)C(=O)N[C@@H](CCSC)C(=O)N[C@@H](CC(=O)O)C(=O)N[C@@H](CCCNC(=N)N)C(=O)N[C@H](C(=O)N[C@@H](CCCCNC(=O)COCCOCCNC(=O)CC[C@H](NC(=O)CCCCCCCCCCCCCCC(=O)O)C(=O)O)C(=O)N[C@@H](CCC(N)=O)C(=O)N[C@@H](CCC(N)=O)C(=O)N[C@@H](CC(=O)O)C(=O)N[C@@H](Cc1ccccc1)C(=O)N[C@H](C(=O)N[C@@H](CC(N)=O)C(=O)N[C@@H](Cc1c[nH]c2ccccc12)C(=O)N[C@@H](CC(C)C)C(=O)N[C@@H](CC(C)C)C(=O)N[C@@H](C)C(=O)N[C@@H](CCC(N)=O)C(=O)N[C@@H](CCCNC(=N)N)C(N)=O)C(C)C)[C@@H](C)CC) [AT512]	0%	73%	79.4 nM	7.1	–	168 nM	-6.8 log M	80%
GGTFISDYSIAMDRIK([AEEA-AEEA-γGlu-C16 diacid])QQDFVNWLLAQR-NH2 (N-terminus assumed; SMILES CC[C@H](C)[C@H](NC(=O)[C@H](CO)NC(=O)[C@H](Cc1ccc(O)cc1)NC(=O)[C@H](CC(=O)O)NC(=O)[C@H](CO)NC(=O)[C@@H](NC(=O)[C@H](Cc1ccccc1)NC(=O)[C@@H](NC(=O)CNC(=O)CN)[C@@H](C)O)[C@@H](C)CC)C(=O)N[C@@H](C)C(=O)N[C@@H](CCSC)C(=O)N[C@@H](CC(=O)O)C(=O)N[C@@H](CCCNC(=N)N)C(=O)N[C@H](C(=O)N[C@@H](CCCCNC(=O)COCCOCCNC(=O)COCCOCCNC(=O)CC[C@H](NC(=O)CCCCCCCCCCCCCCC(=O)O)C(=O)O)C(=O)N[C@@H](CCC(N)=O)C(=O)N[C@@H](CCC(N)=O)C(=O)N[C@@H](CC(=O)O)C(=O)N[C@@H](Cc1ccccc1)C(=O)N[C@H](C(=O)N[C@@H](CC(N)=O)C(=O)N[C@@H](Cc1c[nH]c2ccccc12)C(=O)N[C@@H](CC(C)C)C(=O)N[C@@H](CC(C)C)C(=O)N[C@@H](C)C(=O)N[C@@H](CCC(N)=O)C(=O)N[C@@H](CCCNC(=N)N)C(N)=O)C(C)C)[C@@H](C)CC) [AT514]	0%	86%	31.6 nM	7.5	–	39 nM	-7.4 log M	80%
